2 molecules from patent US20230295330A1 (Seagen, published 2023) can be followed below.

Assay [1] concerns the target T1, CD228 on A375 and A2058 cells (human, UniProt P08582 20-709).
T1 construct: whole, on cells; GPI-anchored cell surface protein; also called CD228 on A375 cells; CD228 on A2058 cells
T1 sequence (looked up): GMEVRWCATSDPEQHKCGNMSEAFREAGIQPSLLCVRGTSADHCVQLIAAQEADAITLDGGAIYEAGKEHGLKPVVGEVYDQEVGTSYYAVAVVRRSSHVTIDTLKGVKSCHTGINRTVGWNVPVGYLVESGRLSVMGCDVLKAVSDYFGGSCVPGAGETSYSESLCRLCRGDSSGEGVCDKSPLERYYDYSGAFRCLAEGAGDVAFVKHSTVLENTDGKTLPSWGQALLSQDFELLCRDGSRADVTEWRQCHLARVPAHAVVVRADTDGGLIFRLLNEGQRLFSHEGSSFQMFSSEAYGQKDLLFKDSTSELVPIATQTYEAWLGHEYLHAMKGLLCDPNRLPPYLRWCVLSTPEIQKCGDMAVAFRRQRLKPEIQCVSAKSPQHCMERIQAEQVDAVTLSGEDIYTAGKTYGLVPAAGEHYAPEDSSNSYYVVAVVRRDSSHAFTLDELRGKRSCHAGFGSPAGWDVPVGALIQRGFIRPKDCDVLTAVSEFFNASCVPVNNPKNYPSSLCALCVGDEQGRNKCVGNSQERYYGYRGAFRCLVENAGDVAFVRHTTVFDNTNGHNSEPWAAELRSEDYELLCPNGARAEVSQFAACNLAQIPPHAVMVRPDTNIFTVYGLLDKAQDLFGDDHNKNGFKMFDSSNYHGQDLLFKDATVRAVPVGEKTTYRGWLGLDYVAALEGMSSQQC
The experiment in a line: flow cytometry saturation binding on A2058 cells (~40K receptors), neutral pH. How it is done:
(§1) The ability of various anti-CD228 antibodies to bind to CD228 on A375 cells, A2058 cells, and CD228 protein was evaluated at neutral pH using a saturation binding assay. Briefly, 1×10⁵ A2058 or A375 cells that have either 40,000 or 18,000 copies of CD228 respectively, were aliquoted per well of a 96-well v-bottom plates. Each CD228 antibody was added in concentrations ranging from 0.66 pM to 690 nM and incubated on ice for 60 minutes. Cells were pelleted and washed 3× with PBS/BSA followed by addition of 10 μg/ml of a PE labeled anti-human IgG goat secondary antibody and incubated on ice for an additional 60 minutes. Cells were pelleted and washed 3× with PBS/BSA and resuspended in 125 μL of PBS/BSA. Fluorescence was analyzed by flow cytometry, using percent of saturated fluorescent signal to determine percent bound and to subsequently calculate apparent KID. […] The histidine 34 variants show large differences for substitutions with alanine, glutamine, and tyrosine.
Background: Flow cytometry measures light scatter and fluorescence of single cells or particles in a stream.

Assay [2] deals with T2, human CD228 (R&D Systems Custom02; Lot DCWR021505A) (human, UniProt P08582 20-709, limits assumed).
T2 construct: Bought custom protein coated on ELISA plates; also called CD228 protein; melanotransferrin
T2 sequence (looked up): T1 sequence (looked up)
The experiment in a line: ELISA, coated human CD228, pH 6.30. The protocol: (§2) Briefly, 100 ng of human CD228 (R&D Systems Custom02; Lot DCWR021505A) or BSA (Sigma; Catalog No. A7030-100G) were diluted in PBS and added to each well overnight at 4° C. Plates were then washed three times with PBS-T (EMD Millipore; Catalog No. 5246531EA). After washing, plates were blocked with 3% (w/v) BSA in PBS-T for 1 hour at room temperature. Excess blocking buffer was then removed and the primary antibody was added in 3-fold dilutions in diluent buffer (0.15M citrate-phosphate buffer pH 4.0-7.5) starting at an antibody concentration of 60 nM. After incubating for 1 hour at room temperature, the plates were washed 3 times and then incubated with secondary antibody (Goat anti-human IgG Fc-specific HRP-conjugated, Jackson ImmunoResearch code #109-035-098) in PBS-T with 1% BSA. After incubating for 30 minutes at room temperature, plates were washed 3 times. 100 μl TMB substrate (Life Technologies-, Cat #002023) was then added to each well. After incubating 10 minutes at room temperature, 100 μl H₂SO₄ was added to each well to stop the reaction, plates were covered with clear plate seal and read on an Envision at […]. pH-dependent binding for hL49 and nine variants with histidine substituted to alanine, glutamine, or tyrosine in the light chain CDRs are shown in FIG. 1A-1I. […] The triple mutants have lower affinity overall compared to hL49.
Background: An ELISA detects its analyte on a solid surface through an enzyme-linked reagent.

In assay [3] the target is T1, CD228 on A375 and A2058 cells. The experiment in a line: flow cytometry saturation binding on A375 cells (~18K receptors), neutral pH. How it is done: as §1
Assay [4] concerns the target T2, human CD228 (R&D Systems Custom02; Lot …). The experiment in a line: ELISA, coated human CD228, pH 5.60. The protocol: as §2
For assay [5] the target is unchanged. The assay is described as follows: ELISA on CD228 protein, neutral pH (rounded form of Table 2, pH 7.40).
Assay [6] has the same target. The assay is described as follows: ELISA, coated human CD228, pH 7.40. How it is done: as §2
Assay [7] has the same target. The assay is described as follows: ELISA, coated human CD228, pH 4.55. The protocol:
as §2

Positions count from the first letter of the chain named.

B1: hL49_27D_Gln (antibody, V domains shown)
VH: QVQLQESGPGLVKPSETLSLTCTVSGDSITSGYWNWIRQPPGKGLEYIGYISDSGITYYNPSLKSRVTISRDTSKNQYSLKLSSVTAADTAVYYCARRTLATYYAMDYWGQGTLVTVSS
VL: DFVMTQSPLSLPVTLGQPASISCRASQSLVQSDGNTYLHWYQQRPGQSPRLLIYRVSNRFSGVPDRFSGSGSGTDFTLKISRVEAEDVGVYYCSQSTHVPPTFGQGTKLEIK
notes: hL49 variant with the light chain CDR-L1 histidine 27D changed to glutamine
For orientation: EC50 means the concentration that produces a half-maximal response. Consider B1, for which the EC50 in assay [1] came out at 500 pM; in assay [2] it was 1480 pM; in assay [3] it was 900 pM; in assay [4], 17300 pM; in assay [5] it was 700 pM; in assay [6], 680 pM. The EC50 in assay [7] is 365000 pM.

B2: hL49_27D_Tyr (antibody, V domains shown)
VH: B1 VH
VL: B1 VL with Q31Y
notes: hL49 variant with the light chain CDR-L1 histidine 27D changed to tyrosine
B2: the EC50 in assay [1] came out at 700 pM; in assay [2] it was 960 pM; in assay [3] it was 1100 pM; in assay [4], 5160 pM; in assay [5], 700 pM; in assay [6], 720 pM. The same molecule came in with a half-maximal effective concentration (EC50) in assay [7] of 335000 pM.
